In patent publication US20060234944:

Assays:
substrate EEISEVNLAAEF = target: T1, substrate EEISEVNLAAEF
T1 chain: EEISEVNLAAEF

substrate EVNLAVEFWHDR = target: T2, substrate EVNLAVEFWHDR
T2 chain: EVNLAVEFWHDR

substrate RWHHEVNLAAEF = target: T3, substrate RWHHEVNLAAEF
T3 chain: RWHHEVNLAAEF

B1: memapsin 2 (spontaneously activated promemapsin 2-T1; amino acids 43-456 and 45-456 of SEQ ID NO: 8) (protein)
chain: LRLPRETDEEPEEPGRRGSFVEMVDNLRGKSGQGYYVEMTVGSPPQTLNILVDTGSSNFAVGAAPHPFLHRYYQRQLSSTYRDLRKGVYVPYTQGKWEGELGTDLVSIPHGPNVTVRANIAAITESDKFFINGSNWEGILGLAYAEIARPDDSLEPFFDSLVKQTHVPNLFSLQLCGAGFPLNQSEVLASVGGSMIIGGIDHSLYTGSLWYTPIRREWYYEVIIVRVEINGQDLKMDCKEYNYDKSIVDSGTTNLRLPKKVFEAAVKSIKAASSTEKFPDGFWLGEQLVCWQAGTTPWNIFPVISLYLMGEVTNQSFRITILPQQYLRPVEDVATSQDDCYKFAISQSSTGTVMGAVIMEGFYVVFDRARKRIGFAVSACHVHDEFRTAAVEGPFVTLDMEDCGYNIPQTDEST
rate of catalysis in competitive cleavage assay (MALDI-TOF), relative to EVNLAAEFWHDR (substrate EEISEVNLAAEF): statistically identical rates of catalysis for the upstream EEIS (SEQ ID NO: 52) and the downstream WHDR (SEQ ID NO: 29) sequence additions | Km (substrate EVNLAVEFWHDR): Km of 83±8.9 mM | rate of catalysis in competitive cleavage assay (MALDI-TOF), relative to EVNLAAEFWHDR (substrate RWHHEVNLAAEF): a 60-fold decrease in the rate of catalysis for the upstream RWHH (SEQ ID NO: 53) sequence addition when compared to the downstream WHDR (SEQ ID NO: 29) sequence addition
